# Target: plasminogen
# Sequence (P00747 20-810): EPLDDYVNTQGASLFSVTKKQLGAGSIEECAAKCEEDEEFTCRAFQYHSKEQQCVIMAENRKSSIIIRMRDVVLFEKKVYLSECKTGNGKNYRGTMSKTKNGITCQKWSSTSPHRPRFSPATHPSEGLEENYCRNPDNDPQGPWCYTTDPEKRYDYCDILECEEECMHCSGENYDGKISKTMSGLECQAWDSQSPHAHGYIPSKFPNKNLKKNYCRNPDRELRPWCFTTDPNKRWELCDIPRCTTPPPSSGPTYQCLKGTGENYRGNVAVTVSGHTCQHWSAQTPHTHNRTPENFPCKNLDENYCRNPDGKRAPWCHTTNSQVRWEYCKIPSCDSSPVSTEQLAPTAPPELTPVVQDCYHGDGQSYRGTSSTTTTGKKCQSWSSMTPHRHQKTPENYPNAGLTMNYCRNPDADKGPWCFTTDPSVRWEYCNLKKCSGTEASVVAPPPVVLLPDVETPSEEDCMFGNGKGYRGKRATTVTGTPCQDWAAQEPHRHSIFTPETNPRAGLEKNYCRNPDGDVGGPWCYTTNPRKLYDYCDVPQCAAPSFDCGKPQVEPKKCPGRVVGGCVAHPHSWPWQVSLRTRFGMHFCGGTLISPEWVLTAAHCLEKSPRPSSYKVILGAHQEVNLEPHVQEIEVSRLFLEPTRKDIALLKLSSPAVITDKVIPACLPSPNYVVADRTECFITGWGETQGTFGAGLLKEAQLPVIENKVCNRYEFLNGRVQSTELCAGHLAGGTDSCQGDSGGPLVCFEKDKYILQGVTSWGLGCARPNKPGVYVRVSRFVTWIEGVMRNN
protein,measurement,value
recombinant streptokinase from Streptococcus equisimilis (ATCC 9542) (protein) IAGPEWLLDRPSVNNSQLVVSVAGTVEGTNQDISLKFFEIDLTSRPAHGGKTEQGLSPKSKPFATDSGAMSHKLEKADLLKAIQEQLIANVHSNDDYFEVIDFASDATITDRNGKVYFADKDGSVTLPTQPVQEFLLSGHVRVRPYKEKPIQNQAKSVDVEYTVQFTPLNPDDDFRPGLKDTKLLKTLAIGDTITSQELLAQAQSILNKNHPGYTIYERDSSIVTHDNDIFRTILPMDQEFTYRVKNREQAYRINKKSGLNEEINNTDLISEKYYVLKKGEKPYDPFDRSHLKLFTIKYVDVDTNELLKSEQLLTASERNLDFRDLYDPRDKAKLLYNNLDAFGIMDYTLTGKVEDNHDDTNRIITVYMGKRPEGENASYHLAYDKDRYTEEEREVYSYLRYTGTPIPDNPNDK,"activity in two-stage plasminogen activation assay (plasmin assayed with H-D-Val-Leu-Lys-p-nitroanilide, A405)","97,500+/-2500 IU/mg protein"

# Reference: patent publication US7105327
